Measured values taken from patent US20260234246A1 (CAEDO ONCOLOGY, published 2026).
Each block holds one binder with its values, some of them ahead of it.

What was measured:
[1] = target: T1, human CD47 on the surface of cells (human cancer cell lines and human red blood cells) (human, UniProt Q08722 19-323); experiment: flow cytometry, FITC-mCO-1 on H4 cells
T1 construct: Native CD47 of human cell lines (Jurkat, Reh, CCRF-CEM and others) and of RBCs from healthy donors; also called cell-surface CD47
Procedure: (§1) PBS-washed cancer cell lines or RBCs were pelleted and washed with washing buffer (3% (w/v) BSA, 1% (w/v) sodium azide in PBS) and incubated with Human BD Fc Block for 10 minutes before being plated into a round-bottom 96 well plate (2.5×10⁵ cells per well). Antibodies were conjugated with FITC using the FITC conjugation kit from Abcam. […] All samples were prepared in duplicates. Cells were washed three times and resuspended in cold washing buffer. Cells were kept on ice until analyses by flow cytometry. Excitation wavelength FITC: 488 nm, detection: 530/30 nm.

[2] = target: T1, human CD47 on the surface of cells …; experiment: flow cytometry, FITC-mCO-1 on Reh cells
[3] = target: T1, human CD47 on the surface of cells …; experiment: flow cytometry, FITC-mCO-1 on T24 cells
Procedure: as §1

[4] = target: T1, human CD47 on the surface of cells …; experiment: flow cytometry, FITC-mCO-1 on Raji cells
[5] = target: T1, human CD47 on the surface of cells …; experiment: flow cytometry, FITC-mCO-1 on A-172 cells
[6] = target: T1, human CD47 on the surface of cells …; experiment: flow cytometry, FITC-mCO-1 on HL-60 cells
[7] = target: T1, human CD47 on the surface of cells …; experiment: flow cytometry, FITC-mCO-1 on K-562 cells
Procedure: as §1

[8] = target: T1, human CD47 on the surface of cells …; experiment: flow cytometry, FITC-mCO-1 on SW780 cells
[9] = target: T1, human CD47 on the surface of cells …; experiment: flow cytometry, FITC-mCO-1 on MOLT-4 cells
[10] = target: T1, human CD47 on the surface of cells …; experiment: flow cytometry, FITC-mCO-1 on SUP-T1 cells
Procedure: as §1

[11] = target: T1, human CD47 on the surface of cells …; experiment: flow cytometry, FITC-mCO-1 on SW1088 cells
Procedure: as §1

[12] = target: T1, human CD47 on the surface of cells …; experiment: flow cytometry, FITC-mCO-1 on TCCSUP cells
Procedure: as §1

[13] = target: T1, human CD47 on the surface of cells …; experiment: flow cytometry, FITC-mCO-1 on HT-1197 cells
Procedure: as §1

[14] = target: T1, human CD47 on the surface of cells …; experiment: flow cytometry, FITC-mCO-1 on HT-1376 cells
[15] = target: T1, human CD47 on the surface of cells …; experiment: flow cytometry, FITC-mCO-1 on U-87-MG cells
[16] = target: T1, human CD47 on the surface of cells …; experiment: flow cytometry, FITC-mCO-1 on UM-UC-3 cells
[17] = target: T1, human CD47 on the surface of cells …; experiment: flow cytometry, FITC-mCO-1 on CCRF-CEM cells
[18] = target: T1, human CD47 on the surface of cells …; experiment: flow cytometry, FITC-mCO-1 on U-118-MG cells
Procedure: as §1

[19] = target: T1, human CD47 on the surface of cells …; experiment: flow cytometry, FITC-mCO-1 on human RBCs (FIG. 1E)
Procedure: as §1

[20] = target: T1, human CD47 on the surface of cells …; experiment: flow cytometry on human RBCs (same experiment as paragraph 345, printed more exactly)
[21] = target: T1, human CD47 on the surface of cells …; experiment: flow cytometry, FITC-conjugated antibody on CCRF-CEM cells
Procedure: as §1
4-parameter curve fitting was performed using GraphPad Prism

[22] = target: T2, recombinant CD47 (recCD47), SinoBiological 12283-H27H-B, biotinylated (human, UniProt Q08722 19-139, biotinylated (AVI-tag)); experiment: SPR Biacore S200, multi-cycle (top 50 nM), recCD47 on SA chip 1330 RU, 1:1 model
T2 construct: Bought protein, 17 kDa; At 17 kDa it can only be a part of it; also called recombinant biotinylated CD47; not shown: C-terminal His- and AVI-tag

[23] = target: T2, recombinant CD47 (recCD47), …; experiment: SPR Biacore S200, single-cycle (top 80 nM), recCD47 on SA chip 1330 RU, 1:1 model
[24] = target: T2, recombinant CD47 (recCD47), …; experiment: SPR Biacore S200, single-cycle, recCD47 on SA chip 700 RU, antibody as analyte, 25 C, 1:1 model
[25] = target: T2, recombinant CD47 (recCD47), …; experiment: SPR Biacore S200, multi-cycle (top 50 nM), recCD47 on SA chip 1330 RU, antibody as analyte, 1:1 model
[26] = target: T2, recombinant CD47 (recCD47), …; experiment: SPR Biacore S200, single-cycle (top 80 nM), recCD47 on SA chip 1330 RU, antibody as analyte, 1:1 model
[27] = target: T2, recombinant CD47 (recCD47), …; experiment: SPR Biacore S200, multi-cycle (top 50 nM), recCD47 on SA chip 1330 RU, 1:1 model; * off-rate difficult to determine
[28] = target: T2, recombinant CD47 (recCD47), …; experiment: SPR Biacore S200, single-cycle (top 80 nM), recCD47 on SA chip 1330 RU, 1:1 model; * off-rate difficult to determine

T1 sequence (Q08722 19-323 limits assumed): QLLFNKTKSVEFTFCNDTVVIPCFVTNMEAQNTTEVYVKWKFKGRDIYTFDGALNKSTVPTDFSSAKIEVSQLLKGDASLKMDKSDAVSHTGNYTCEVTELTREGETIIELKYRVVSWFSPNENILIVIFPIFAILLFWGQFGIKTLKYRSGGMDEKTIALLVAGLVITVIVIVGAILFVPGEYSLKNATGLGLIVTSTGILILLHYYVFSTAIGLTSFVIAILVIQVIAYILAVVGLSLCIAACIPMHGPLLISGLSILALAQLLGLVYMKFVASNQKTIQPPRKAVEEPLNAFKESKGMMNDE
T2 sequence (Q08722 19-139 limits assumed): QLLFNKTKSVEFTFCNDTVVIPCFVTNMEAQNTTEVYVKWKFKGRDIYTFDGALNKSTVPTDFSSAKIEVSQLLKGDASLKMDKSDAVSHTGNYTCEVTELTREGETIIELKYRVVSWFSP

EC50 [1]: 2460 ng/mL | EC50 [2]: 2800 ng/mL | EC50 [3]: 900 ng/mL | EC50 [4]: 26.7 ng/mL | EC50 [5]: 3500 ng/mL | EC50 [6]: 592 ng/mL | EC50 [7]: 354 ng/mL | EC50 [8]: 334 ng/mL | EC50 [9]: 10.6 ng/mL | EC50 [10]: 4.25 ng/mL | EC50 [11]: 1170 ng/mL | EC50 [12]: 2400 ng/mL | EC50 [13]: 786 ng/mL | EC50 [14]: 286 ng/mL | EC50 [15]: 2990 ng/mL | EC50 [16]: 55.3 ng/mL | EC50 [17]: 1.08 ng/mL | EC50 [18]: 404 ng/mL | EC50 [19]: 40 ng/mL | EC50 [20]: 44 ng/mL
B1: murine CO-1 (mCO-1) antibody (antibody, V domains shown)
VH: QIQLVQSGPELKKPGETVKISCKASGYTFTNFGMHWVKQAPGKGLKWMGWINTYTGEPTYTDDFKGRFAFSLETSASTAYLQINSLKNEDTATFFCTRGDYRYGDSWGQGTTLTVSS
VL: DVVMTQTPLSLPVSLGDQASISCRSSQSLVHSNGKTYLHWYLQKPGQSPKLLIYRVSNRFSGVPDRFSGSGSGTDFTLKISRIEAEDLGVYFCSQSTHVPFTFGSGTKLEIK
notes: Full length mouse IgG1 kappa antibody from a hybridoma

EC50 [21]: 0.0283 ng/mL | Kd [22]: < 1 pM | Kd [23]: < 1 pM | koff [24]: 4.7e-06 s⁻¹ | kon [24]: 1.4e+06 M⁻¹ s⁻¹ | kon [25]: 900000 M⁻¹ s⁻¹ | kon [26]: 500000 M⁻¹ s⁻¹ | Kd [27]: 0.04 pM | Kd [28]: < 1 pM
B2: CO-1.1 antibody (chimeric CO-1 IgG1) (antibody)
heavy: not shown
light: DVVMTQTPLSLPVSLGDQASISCRSSQSLVHSNGKTYLHWYLQKPGQSPKLLIYRVSNRFSGVPDRFSGSGSGTDFTLKISRIEAEDLGVYFCSQSTHVPFTFGSGTKLEIKRTVAAPSVFIFPPSDEQLKSGTASVVCLLNNFYPREAKVQWKVDNALQSGNSQESVTEQDSKDSTYSLSSTLTLSKADYEKHKVYACEVTHQGLSSPVTKSFNRGEC
notes: Chimeric: mouse variable domains of mCO-1 with human IgG1 constant regions; also called SC-CO-1; MC-CO-1
